The values that follow come from paper PMC3150277, “Crystal Structure of PrgI-SipD: Insight into a Secretion Competent State of the Type Three Secretion System Needle Tip and its Interaction with Host Ligands” (PLoS Pathogens, 2011).

This assay deals with T1, SipD 127-343, as it stands in the PrgI-SipDΔD1 fusion protein (S. enterica serovar typhimurium strain …, UniProt Q56026 127-343).
T1 construct: SipD of S. enterica serovar typhimurium strain SL1344, amino acids 127 to 343; In the crystal it is joined on one chain, C-terminal of PrgI and the linker Gly-Gly-Ser-Gly-Gly; also called SipDΔD1 (in the fusion); source: E. coli BL21(DE3), purified as part of the PrgI-SipDΔD1 fusion protein
T1 sequence: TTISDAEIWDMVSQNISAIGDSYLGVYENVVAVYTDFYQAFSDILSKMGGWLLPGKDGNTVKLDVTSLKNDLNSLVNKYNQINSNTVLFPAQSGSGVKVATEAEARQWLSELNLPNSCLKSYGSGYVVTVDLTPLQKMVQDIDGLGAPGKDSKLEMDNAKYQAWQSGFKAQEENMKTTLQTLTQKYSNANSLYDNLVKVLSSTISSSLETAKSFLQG
In words: crystal structure; PrgI-SipDΔD1 fusion protein, X-ray, 2.4 Å apo and 2.19 Å soaked with deoxycholate; two copies in the asymmetric unit. As to conditions: both partners purified.

B1: PrgI, wildtype, as it stands in the PrgI-SipDΔD1 fusion protein (natural protein)
chain: MATPWSGYLDDVSAKFDTGVDNLQTQVTEALDKLAAKPSDPALLAAYQSKLSEYNLYRNAQSNTVKVFKDIDAAIIQNFR
notes: wildtype PrgI of S. enterica serovar typhimurium strain SL1344; In the crystal it is joined on one chain through Gly-Gly-Ser-Gly-Gly to SipD 127-343; also called needle subunit PrgI; source: E. coli BL21(DE3), purified as part of the PrgI-SipDΔD1 fusion protein; not shown: His-tag, N-terminal, cleaved
As to B1, the binding result is “binds”.
